Laboratory results: patent publication US20240343794A1 (UNITED KINGDOM RESEARCH AND INNOVATION, published 2024)

Biological target: T1, human IL-25R (IL-17BR) on human ILCs/ILC2s from primary CRC samples (human, UniProt Q9NRM6 18-502)
T1 construct: Endogenous receptor on primary patient cells; also called interleukin-17 receptor B
T1 sequence: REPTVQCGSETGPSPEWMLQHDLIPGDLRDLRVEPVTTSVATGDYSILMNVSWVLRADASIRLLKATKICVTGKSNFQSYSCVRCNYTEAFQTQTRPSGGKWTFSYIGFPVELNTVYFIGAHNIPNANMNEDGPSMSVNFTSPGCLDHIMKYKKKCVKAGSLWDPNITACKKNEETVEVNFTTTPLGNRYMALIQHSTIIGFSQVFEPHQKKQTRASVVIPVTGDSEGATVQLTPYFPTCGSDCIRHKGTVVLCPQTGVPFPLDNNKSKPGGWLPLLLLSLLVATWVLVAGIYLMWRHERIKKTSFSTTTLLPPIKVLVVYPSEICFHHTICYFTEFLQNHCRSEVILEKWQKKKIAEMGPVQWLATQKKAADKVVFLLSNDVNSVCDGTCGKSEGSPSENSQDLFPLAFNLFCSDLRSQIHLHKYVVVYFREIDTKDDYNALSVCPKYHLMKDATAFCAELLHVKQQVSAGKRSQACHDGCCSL
Experiment: Flow cytometry of a primary human CRC sample stained with biotinylated D9.2 plus streptavidin-BV421. Cells were pre-gated on Live CD45+, then Lin- CD4-, CD127+, and CRTH2+ for ILC2.
Procedure: Subsequently, samples were digested with 62.5 μg/mL Liberase TL (Roche) and 0.125 KU/mL DNase I (Sigma) in RPMI+2% FCS+10 mM HEPES at 37° C., shaking, for 45 minutes to collect lamina propria cells. After digestion, cells were passed through a 70 μm cell strainer and washed with PBS+2% FCS before antibody staining. Mesenteric lymph nodes were mechanically dissociated in RPMI, filtered through a 50 μm cell strainer, and washed with PBS+2% FCS before antibody staining. Fresh, surgically-resected human CRC and adjacent normal tissue were collected in sterile PBS and transported on ice before sample processing. Samples were mechanically dissociated into small pieces and digested with 100 μg/mL Liberase TM (Roche) and 0.2 KU/mL DNase I (Sigma) in RPMI, and incubated at 37° C. for 30 minutes. Subsequently, cells were filtered through a 70 μm cell strainer and washed with PBS+2% FCS before antibody staining for flow cytometry.
For surface staining, single cell suspensions were 333 blocked with anti-CD16/32 antibody (Fc block, clone 2.4G2) and Human TruStain FcX (Biolegend, 422302) for mouse and human samples in PBS+2% FCS respectively, and incubated with fluorochrome-conjugated or biotinylated antibodies on ice for 30 minutes in the dark. If necessary, samples were then incubated with fluorochrome-conjugated streptavidin on ice for a further 30 minutes.

B1: anti-IL25R monoclonal antibody (clone D9.2) (antibody, V domains shown)
VH: QVQLQQPGAELVRPGASVKLSCKTSGYTFISYWMNWVKQGPEQGLEWIGRIDPYDSEIQYNQKFKDKAILTVDKSSSAAYMQLISLTSEDSAVYYCARSGGFDWFAYWGQGTLVTVSA
VL: DIQMTQSPASLSVSVGETVTITCRASENINSNLAWYQQKKGKSPQLLVYDVTNLADGVPSRFSGSGSGTQYSLKINSLQSEDFGSYYCQHFWRPPYTFGGGTNLEIK
notes: Murine antibody; also called IL17BR (D9.2, AF647); IL17BR (D9.2, biotin)
binding result: binds
